Laboratory results from a protein production outcome set (Wang et al. 2014).

test: label from the status in PepcDB records

| Sequence | protein production |
| --- | --- |
| QYHDHHKDQYQMDAAHVPNKTPLYITDILSLRGKKDSGPARDSIRDSIDRIEFTDFQLHELTGRWLSENMPEGFKSDRFRFLARTITASEEAPVEGSDGEIRIKPNLYILVWEPSFYEELLTRDYFFLFPPEILKQHTLVFQLYSFFRSRMVRRHTDCMLLSELNQKLARNIEWRRFSMDLIRELKRLSDGKGTDDLFVVNLWGYHLTIETMIENDKVMDYQIDIKCDVEEVLRYSRARTTNAGKRNMAPTLPNPLRNEMVTRQQLEALSGIIDGEFEPIQRKTPSPRGNLGRRVKQRKHLVEINADEITITLSKYTSPEALERSITALSAMTGHSYASIKEECSEYIEKLDWLRVGDEPIPYETLSKTVELFNTQNEVKHLTIERLIAGLAVRRKVCRQVFDGHMDEMVFRALDEMAI | failed |
| RAGHIEVAEVEGMSFPVKLDTGADVSSINAKDIKLFQKDGKDMVSFTYENDLGMQKAFTREVVDVMKITAKKGEKANVRPVVEMHVKLGELEKKIRVNLQDRGRFHYSMILGKNFLKHGALVASETNYIVTKK | not failed |
| RDITARVQAEENKRRLAEVVEANPDPVLFIQPGGAVTYLNPAARRTLGLGDGQAMPPLAAILSAAVLDSLQREGWDRAEHSGRWNIEARLQPPAGGASVPVSLMLLAHRAASGERFYSLVAHD | failed |
| RDLDAVLQAIVQRARSLLGTDVAYLTLHDEAEGDTYMRVTEGSVAARFQQLRLGMGEGLGGLVAQTARPYVTPDYFNDERFQHTRVIDGGVRDEGLVAILGVPLMIGPQVIGVLFAADRRARVFEREQIALLGSFAALAAAAIDTANLLTETRSALDRLARANEIIRDRSGVIERASDVHDRLAELVLRGG | failed |
| RDSLFNDPNAPVLGNPEGDVTVVEFFDYNCPYCRRAMAEVQGLVDADPNVRLVYREWPILGEGSDFAARAALAARQQGKYEAFHWALMGMSGKANETGVLRIAREVGLDTEQLQRDMEAPEVTAHIAQSMALAQKLGFNGTPSFVVEDALVPGFVEQSQLQDAVDRARKAA | not failed |
| RDSLFNDPNAPVLGNPEGDVTVVEFFDYNCPYCRRAMAEVQGLVDADPNVRLVYREWPILGEGSDFAARAALAARQQGKYEAFHWALMGMSGKANETGVLRIAREVGLDTEQLQRDMEAPEVTAHIAQSMALAQKLGFNGTPSFVVEDALVPGFVEQSQLQDAVDRARKAAAK | not failed |
| REEDPHEGKIWFHGKISKQEAYNLLMTVGQVCSFLVRPSDNTPGDYSLYFRTNENIQRFKICPTPNNQFMMGGRYYNSIGDIIDHYRKEQIVEGYYLKEPVPMQDQ | not failed |
| REIADNTYIVLGTMTLNDFNEYFETDLESDNVDTIAGFYLTGVGTIPSQEEKEHFEVESNGKHLELINDKVKDGRVTKLKILVSEVEEKEDEKD | not failed |
| REKLFLQPVKPTDSMRMEVSSPKLAIGVRGKREVSEADCYRHHILLKLLFAMMFGWTSDRFQKCYESGKIDASLSLEVEITSRFHFVMLTMDTKEPVALSHQFRKAIRNFTKDLDITEEHLDIIKREMFGEFFSSMNSLEFIATQYDAFENGEIIFDLPKILQEITLEDVLDAGHHLIDDGDIVDFTIFP | failed |
| RGLRRGTLRIGSFGPTSSMRLLPALLARYRQQYPGIEVHIDEGPDEQVLQWLLERRVDIAFAVLPDPRFVCCPLVEDQMVAVLPAGHRLADRPRVTLAELCGEPFALSGAGSAELVMRLFQAARLQPNIRYRCGQLLSTLDTVARG | failed |
| RGRYRQYNSEILEEAISVVMSGKMSVSKAQSIYGIPHSTLEYKVKERLGTLKNPPKKKMKLMR | not failed |
| RKKEDKYDFRALGLAIKEARKKQGLTREQVGAMIEIDPRYLTNIENKGQHPSLQVLYDLVSLLNVSVDEFFLPASSQVKSTKRRQLENKIDNF | failed |
| RLEDLGAASAARLLDAAEERLGRPCGRMERYGRVEREVVAAAEGAELLIVARDGDRARLGPHSLGPASRFVVDHAPCPVLLVWPAPAPGLGTIPPPPHP | not failed |
| RNGGTIGGADIIAKLLEDKLGLQLNQALLGIDLFVMIVSLTYISLPQMMYALIASFMYGQIVRLVQQGGYSARGIFIVSEQAEKIARFIMDELGRGVTYLTGEGAYSGRRKKVIYVALGRRDIRELKAFLTQVDPNAFITYFDVNEVNSPEFLTIKSKYHKKRK | failed |
| RPAVFPRMGVLPARVALLGQGQHWGVDFCLNVFRANFAEDREIQSEDVVRDLLRAQDLDADALIAQARQESTKEALRKQVDRARALGIFGAPTFMVDGEMFWGNDRLEDALA | failed |
| RPDVSRQSQFHTMALVNLSAKMIESCYFLRHFEQQWLLRFHLQAESVGLFSEGLLAFDGDGRICAANQSALNLLGTVRGGVLGKPLECFFACSHDEMFSRATPGG | failed |
| RQAEEGPPPLPRQISDRSVGHYCSMNLTEHNGPKAQIFLNGKPDQPVWFSTIKQMFGYTKLPEEPKGIRVIYVTDMGNVTDWTNPNADTEWMDAKKAFYVIDSGFIGGMGAEDALPFGNKEQAEKFAKDKGGKVVGFDDMPDTYIFK | not failed |
| RQKFINDVLHLLYRPLDWNQSIAKVMELLGRFTQADRSYIFENSPDDSYATNTFEWCQEGIAPQIHLLQHFEYSLMPSWKPLIVEKKMICASDISTLPLDLSETLAPQGIKSILAVSIFAQGRLYGYLGLDSCRKKREWSEEEIELLRSISTIIAGAIERRGWERSEKEQ | failed |
| RRLVTYVLVHGTHSAGAFWTPIARELGLRGHRVVMVDQPRHGAEAFVAESYQRQDLAAMAVEPSPLKGLGLDDYEARVAGIVRRAARNGPVVLVGHSLGGVSVSRVGEAVPHLLHHICYMAAFCPSRVLPTADACTAAPENANAVSPVELTVGDPDRLGVLRLNFRTGVSGELALLKEMICADYPDADFRRILAGMQTDEPVAAYAGRAVGRAGRWGRIPRTYLRFGRDRTIATALQDRVIAEADAATPGNGFRVHDFPEASHVGPLDPTPVADVLDRLA | failed |
| RSAHLRVRQLPHAPEHPVATLSTVERRAINLTWTKPFDGNSPLIRYILEMSENNAPWTVLLASVDPKATSVTVKGLVPARSYQFRLCAVNDVGKGQFSKDTERVSLPE | not failed |
| RSRPSPYACHVEAWAADGRQRVRMANPGHATLVLHVYDCLRLAQGPRRYTIEPGRQWEDSWPDAGADLACDLWILGPDGFHRHIRR | failed |
| RSTIGAGQKVNVEFVSANPTGPMHVGHVRGAVVGDALARLLAYAGWNVTREYYINDGGAQVDVLARSAFERYREAHGLEPEIREGLYPGDYLIPVGEALKAKYGDSLLDKGEQHWLTEVREFATEMMMQMIREDLAALGVEMDVYSSEKALYGTGKIEAALDRLKEMDLIYEGVLEPPKGKTPEDWEPREQTLFRSTAHGDDVDRPVKKSDGSWTYFAPDIAYHYDKVTRGFDQLIDIFGADHGGYVKRMKAAVAALSAGRVPLDIKLIQLVKLWKNGEPFKMSKRAGTYVTLRDVVEQVGTDVTRFVMLTRKNDATLDFDFDKVLEQSKENPVFYVQYANARINSVLRKAREQGMDVSDA | failed |
| RTKDGLTLYTRRWDVESPRAVICLVHGLGEHSGRYEHVARFFNENGISFAAFDLRGHGRSEGKRGHAEYQQLMDDITLFLQSLDYDCPKILYGHSMGGNLALNYILRYDPDIAGGIISAPFLALPKELPKHLFFILKLLNVVAPSIQLSNGIDPNLISRDREVVEAYVSDPLVHDKISPRFILQSLEAGKWALENADRLRKPILLIHGTADQITSYRASQEFAKRAGELCKFVSYEGFYHEPHNEPEKERVLADMLKWIEEVI | failed |
| RTSYLEFNQRDKNSPYNNVNLRKAISAAIDRNALVDKILGDGSVVATGLIPEGMSYSPTDDTDFADENKKIVEYSPEKAKEYWAKAKKELGITTLKMDIVADDVDSTKKLAEYIQGTLKDTLEGIDVTVSPVPFSVRIDRGSRGDFETILGGWAADYADPSSFLDLFVTGNNYNRGRFSSKAYDELIEASATRDASDPEKRWEDMVKAEKLLIGEETALAPLYQKA | failed |
| RVTVMLAAFEGWNDAGEAASDALHYLNKLWDGKKVATVDAEEYYDFQFTRPTVRRTSSGARKVKWPSTRIYKAEVPDSNVDVVLVLGTEPSYRWRAYTTELLVHAEALKVDSVILVGALLADVPHSRPIPVSTTTEDSSLRERLNLEASQYEGPVGIVGVLAEFAMLAGLPTVSLWAAVPHYVAQPPSPKAQLAILHRIEDLLQVPLDSQALAEESEAWERGVDELATEDPEITAYVRQLEEAKDTADLPE | not failed |
